Like-named read-outs stand apart in the source and are kept apart here.
Tests used:
Experiment in all cases: cell-based or functional assay
[1] = target: T1, human complement Component 5 (C5) (human, UniProt P01031 19-1676, limits assumed)
[2] = target: T1, human complement Component 5 (C5); remark: listed apart in the source
[3] = target: T1, human complement Component 5 (C5); remark: listed apart in the source
[4] = target: T1, human complement Component 5 (C5); remark: listed apart in the source
[5] = target: T1, human complement Component 5 (C5); remark: listed apart in the source

T1 sequence (P01031 19-1676 limits assumed): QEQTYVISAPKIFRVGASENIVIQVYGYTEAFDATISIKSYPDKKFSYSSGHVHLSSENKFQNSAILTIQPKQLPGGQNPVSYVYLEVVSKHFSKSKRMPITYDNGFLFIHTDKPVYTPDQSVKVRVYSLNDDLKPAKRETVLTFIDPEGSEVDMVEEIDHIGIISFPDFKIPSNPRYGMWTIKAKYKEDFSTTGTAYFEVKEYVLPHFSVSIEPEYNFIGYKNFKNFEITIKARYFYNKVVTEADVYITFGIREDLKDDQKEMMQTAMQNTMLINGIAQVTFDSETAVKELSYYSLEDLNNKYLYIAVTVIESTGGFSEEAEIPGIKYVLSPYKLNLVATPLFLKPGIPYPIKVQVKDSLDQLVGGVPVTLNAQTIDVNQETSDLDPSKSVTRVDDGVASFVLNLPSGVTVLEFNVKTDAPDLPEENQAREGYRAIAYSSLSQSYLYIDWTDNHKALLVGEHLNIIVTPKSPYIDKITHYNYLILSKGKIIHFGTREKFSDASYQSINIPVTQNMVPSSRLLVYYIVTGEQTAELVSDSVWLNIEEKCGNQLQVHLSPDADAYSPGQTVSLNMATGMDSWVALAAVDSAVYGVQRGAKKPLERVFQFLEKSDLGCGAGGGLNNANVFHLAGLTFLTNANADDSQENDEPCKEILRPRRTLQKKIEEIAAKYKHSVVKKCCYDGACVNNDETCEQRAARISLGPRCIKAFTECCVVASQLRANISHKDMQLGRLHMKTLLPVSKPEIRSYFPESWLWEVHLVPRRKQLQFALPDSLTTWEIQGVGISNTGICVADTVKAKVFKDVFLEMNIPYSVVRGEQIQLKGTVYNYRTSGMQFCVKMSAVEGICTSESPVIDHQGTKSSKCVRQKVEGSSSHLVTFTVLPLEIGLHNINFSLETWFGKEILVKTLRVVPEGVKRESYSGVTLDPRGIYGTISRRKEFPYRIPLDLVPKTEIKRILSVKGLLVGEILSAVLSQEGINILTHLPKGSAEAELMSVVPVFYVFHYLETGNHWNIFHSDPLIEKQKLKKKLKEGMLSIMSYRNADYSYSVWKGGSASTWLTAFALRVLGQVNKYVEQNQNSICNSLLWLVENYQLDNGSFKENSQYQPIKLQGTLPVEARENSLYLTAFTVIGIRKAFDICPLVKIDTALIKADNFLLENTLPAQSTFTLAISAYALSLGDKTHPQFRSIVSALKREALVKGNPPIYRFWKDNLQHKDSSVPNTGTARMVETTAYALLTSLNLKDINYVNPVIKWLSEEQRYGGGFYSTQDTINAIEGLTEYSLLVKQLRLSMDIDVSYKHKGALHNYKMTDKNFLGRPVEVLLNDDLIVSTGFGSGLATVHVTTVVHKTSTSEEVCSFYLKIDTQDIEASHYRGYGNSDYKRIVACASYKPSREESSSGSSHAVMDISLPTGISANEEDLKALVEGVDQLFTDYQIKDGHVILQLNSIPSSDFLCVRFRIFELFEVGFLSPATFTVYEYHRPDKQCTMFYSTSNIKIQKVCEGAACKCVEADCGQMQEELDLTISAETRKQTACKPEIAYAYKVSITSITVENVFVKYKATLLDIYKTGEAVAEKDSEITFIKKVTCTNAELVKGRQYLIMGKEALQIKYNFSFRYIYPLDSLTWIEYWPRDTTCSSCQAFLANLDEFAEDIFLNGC

Binder	IC50 (read off the curve), % Inhibition [1] [µg/mL]	IC50 (read off the curve), % Inhibition [2] [µg/mL]	IC50 (read off the curve), OD (450nM) [3] [µg/mL]	further results
H2L1-IgG (antibody, V domains shown) VH: EVQLVQSGAEVKKPGASVKVSCKASGYTFTDEYMNWVRQAPGKSLEWVGYINPNNGGADYNQKFQGRVTITVDQSASTAYMELSSLRSEDTAVYFCARLGYSNPYFDFWGQGTLVTVSS VL: DIVLTQSPDSLAVSLGERATINCKASQDVNTAVAWYQQKPDQSPKLLIYWASTRHTGVPARFTGSGSGTDYTLTISSLQAEDVAVYFCQQHHVSPWTFGGGTKVEIK	~3			
H1L2-Fab (Fab, V domains shown) VH: QVQLVQSGAEVKKPGASVKVSCKASGYTFTDEYMNWVRQAPGQSLEWMGYINPNNGGADYNQKFQGRVTMTVDQSISTAYMELSRLRSDDTAVYFCARLGYSNPYFDFWGQGTLVTVSS VL: DIVLTQSPATLSLSPGERATLSCRASQDVNTAVAWYQQKPDQSPKLLIYWASTRHTGVPARFTGSGSGTDYTLTISSLQPEDFAVYFCQQHHVSPWTFGGGTKVEIK		~2	~0.4	
H1L1-IgG (antibody, V domains shown) VH: QVQLVQSGAEVKKPGASVKVSCKASGYTFTDEYMNWVRQAPGQSLEWMGYINPNNGGADYNQKFQGRVTMTVDQSISTAYMELSRLRSDDTAVYFCARLGYSNPYFDFWGQGTLVTVSS VL: DIVLTQSPDSLAVSLGERATINCKASQDVNTAVAWYQQKPDQSPKLLIYWASTRHTGVPARFTGSGSGTDYTLTISSLQAEDVAVYFCQQHHVSPWTFGGGTKVEIK	~3			
H2L2-Fab (Fab, V domains shown) VH: EVQLVQSGAEVKKPGASVKVSCKASGYTFTDEYMNWVRQAPGKSLEWVGYINPNNGGADYNQKFQGRVTITVDQSASTAYMELSSLRSEDTAVYFCARLGYSNPYFDFWGQGTLVTVSS VL: DIVLTQSPATLSLSPGERATLSCRASQDVNTAVAWYQQKPDQSPKLLIYWASTRHTGVPARFTGSGSGTDYTLTISSLQPEDFAVYFCQQHHVSPWTFGGGTKVEIK			~0.5	
H3L2-IgG (antibody, V domains shown) VH: QVQLVQSGAEVKKPGASVKVSCKASGYTFTDEYMNWVRQAPGQSLEWMGYINPNNGGADYNPSLKSRVTISVDQSISTAYMELSRLRSDDTAVYFCARLGYSNPYFDFWGQGTLVTVSS VL: DIVLTQSPATLSLSPGERATLSCRASQDVNTAVAWYQQKPDQSPKLLIYWASTRHTGVPARFTGSGSGTDYTLTISSLQPEDFAVYFCQQHHVSPWTFGGGTKVEIK				IC50 (read off the curve), OD (450nM) [4]: ~0.8 µg/mL
H3L1-Fab (Fab, V domains shown) VH: QVQLVQSGAEVKKPGASVKVSCKASGYTFTDEYMNWVRQAPGQSLEWMGYINPNNGGADYNPSLKSRVTISVDQSISTAYMELSRLRSDDTAVYFCARLGYSNPYFDFWGQGTLVTVSS VL: DIVLTQSPDSLAVSLGERATINCKASQDVNTAVAWYQQKPDQSPKLLIYWASTRHTGVPARFTGSGSGTDYTLTISSLQAEDVAVYFCQQHHVSPWTFGGGTKVEIK			~0.5	
H3L1-IgG (antibody, V domains shown) VH: QVQLVQSGAEVKKPGASVKVSCKASGYTFTDEYMNWVRQAPGQSLEWMGYINPNNGGADYNPSLKSRVTISVDQSISTAYMELSRLRSDDTAVYFCARLGYSNPYFDFWGQGTLVTVSS VL: DIVLTQSPDSLAVSLGERATINCKASQDVNTAVAWYQQKPDQSPKLLIYWASTRHTGVPARFTGSGSGTDYTLTISSLQAEDVAVYFCQQHHVSPWTFGGGTKVEIK				IC50 (read off the curve), OD (450nM) [4]: ~0.7 µg/mL
H2L2-IgG (antibody, V domains shown) VH: EVQLVQSGAEVKKPGASVKVSCKASGYTFTDEYMNWVRQAPGKSLEWVGYINPNNGGADYNQKFQGRVTITVDQSASTAYMELSSLRSEDTAVYFCARLGYSNPYFDFWGQGTLVTVSS VL: DIVLTQSPATLSLSPGERATLSCRASQDVNTAVAWYQQKPDQSPKLLIYWASTRHTGVPARFTGSGSGTDYTLTISSLQPEDFAVYFCQQHHVSPWTFGGGTKVEIK				IC50 (read off the curve), OD (450nM) [4]: ~0.7 µg/mL
H1L3-Fab (Fab, V domains shown) VH: QVQLVQSGAEVKKPGASVKVSCKASGYTFTDEYMNWVRQAPGQSLEWMGYINPNNGGADYNQKFQGRVTMTVDQSISTAYMELSRLRSDDTAVYFCARLGYSNPYFDFWGQGTLVTVSS VL: DIVLTQSPSFLSASVGDRVTITCQASQDVNTAVAWYLQKPGKSPKLLIYWASTRHTGVPARFTGSGSGTDYTLTISSLQPEDFAVYFCQQHHVSPWTFGGGTKVEIK		~2		
H2L1-Fab (Fab, V domains shown) VH: EVQLVQSGAEVKKPGASVKVSCKASGYTFTDEYMNWVRQAPGKSLEWVGYINPNNGGADYNQKFQGRVTITVDQSASTAYMELSSLRSEDTAVYFCARLGYSNPYFDFWGQGTLVTVSS VL: DIVLTQSPDSLAVSLGERATINCKASQDVNTAVAWYQQKPDQSPKLLIYWASTRHTGVPARFTGSGSGTDYTLTISSLQAEDVAVYFCQQHHVSPWTFGGGTKVEIK		~2	~0.5	
H1L1-Fab (Fab, V domains shown) VH: QVQLVQSGAEVKKPGASVKVSCKASGYTFTDEYMNWVRQAPGQSLEWMGYINPNNGGADYNQKFQGRVTMTVDQSISTAYMELSRLRSDDTAVYFCARLGYSNPYFDFWGQGTLVTVSS VL: DIVLTQSPDSLAVSLGERATINCKASQDVNTAVAWYQQKPDQSPKLLIYWASTRHTGVPARFTGSGSGTDYTLTISSLQAEDVAVYFCQQHHVSPWTFGGGTKVEIK		~2	~0.3	
H1L2-IgG (antibody, V domains shown) VH: QVQLVQSGAEVKKPGASVKVSCKASGYTFTDEYMNWVRQAPGQSLEWMGYINPNNGGADYNQKFQGRVTMTVDQSISTAYMELSRLRSDDTAVYFCARLGYSNPYFDFWGQGTLVTVSS VL: DIVLTQSPATLSLSPGERATLSCRASQDVNTAVAWYQQKPDQSPKLLIYWASTRHTGVPARFTGSGSGTDYTLTISSLQPEDFAVYFCQQHHVSPWTFGGGTKVEIK	~3			
H3L4-IgG (antibody, V domains shown) VH: QVQLVQSGAEVKKPGASVKVSCKASGYTFTDEYMNWVRQAPGQSLEWMGYINPNNGGADYNPSLKSRVTISVDQSISTAYMELSRLRSDDTAVYFCARLGYSNPYFDFWGQGTLVTVSS VL: DIVLTQSPATLSLSPGERATLSCRASQDVNTAVAWYQQKPGKSPKLLIYWASTRHTGVPARFTGSGSGTDYTLTISSLQPEDFAVYFCQQHHVSPWTFGGGTKVEIK				IC50 (read off the curve), OD (450nM) [5]: ~0.8 µg/mL
H3L3-IgG (antibody, V domains shown) VH: QVQLVQSGAEVKKPGASVKVSCKASGYTFTDEYMNWVRQAPGQSLEWMGYINPNNGGADYNPSLKSRVTISVDQSISTAYMELSRLRSDDTAVYFCARLGYSNPYFDFWGQGTLVTVSS VL: DIVLTQSPSFLSASVGDRVTITCQASQDVNTAVAWYLQKPGKSPKLLIYWASTRHTGVPARFTGSGSGTDYTLTISSLQPEDFAVYFCQQHHVSPWTFGGGTKVEIK				IC50 (read off the curve), OD (450nM) [5]: ~0.8 µg/mL

Now from value to binder, other results behind:

IC50 (read off the curve), % Inhibition [1] [µg/mL]	IC50 (read off the curve), % Inhibition [2] [µg/mL]	IC50 (read off the curve), OD (450nM) [3] [µg/mL]	Binder	further results
~2			H5L1-IgG (antibody, V domains shown) VH: QVQLKQSGAEVKKPGASVKVSCKASGYTFTDEYMNWVRQAPGKSLEWMGYINPNNGGADYNQKFQGRVTMTVDQSISTAYMELSRLRSDDTAVYFCARLGYSNPYFDFWGQGTLVTVSS VL: DIVLTQSPDSLAVSLGERATINCKASQDVNTAVAWYQQKPDQSPKLLIYWASTRHTGVPARFTGSGSGTDYTLTISSLQAEDVAVYFCQQHHVSPWTFGGGTKVEIK	IC50 (read off the curve), OD (450nM) [4]: ~0.5 µg/mL
	~2	~0.4	H5L2-Fab (Fab, V domains shown) VH: QVQLKQSGAEVKKPGASVKVSCKASGYTFTDEYMNWVRQAPGKSLEWMGYINPNNGGADYNQKFQGRVTMTVDQSISTAYMELSRLRSDDTAVYFCARLGYSNPYFDFWGQGTLVTVSS VL: DIVLTQSPATLSLSPGERATLSCRASQDVNTAVAWYQQKPDQSPKLLIYWASTRHTGVPARFTGSGSGTDYTLTISSLQPEDFAVYFCQQHHVSPWTFGGGTKVEIK	
	~2		H5L1-Fab (Fab, V domains shown) VH: QVQLKQSGAEVKKPGASVKVSCKASGYTFTDEYMNWVRQAPGKSLEWMGYINPNNGGADYNQKFQGRVTMTVDQSISTAYMELSRLRSDDTAVYFCARLGYSNPYFDFWGQGTLVTVSS VL: DIVLTQSPDSLAVSLGERATINCKASQDVNTAVAWYQQKPDQSPKLLIYWASTRHTGVPARFTGSGSGTDYTLTISSLQAEDVAVYFCQQHHVSPWTFGGGTKVEIK	
~3			H5L3-IgG (antibody, V domains shown) VH: QVQLKQSGAEVKKPGASVKVSCKASGYTFTDEYMNWVRQAPGKSLEWMGYINPNNGGADYNQKFQGRVTMTVDQSISTAYMELSRLRSDDTAVYFCARLGYSNPYFDFWGQGTLVTVSS VL: DIVLTQSPSFLSASVGDRVTITCQASQDVNTAVAWYLQKPGKSPKLLIYWASTRHTGVPARFTGSGSGTDYTLTISSLQPEDFAVYFCQQHHVSPWTFGGGTKVEIK	
~3			H5L2-IgG (antibody, V domains shown) VH: QVQLKQSGAEVKKPGASVKVSCKASGYTFTDEYMNWVRQAPGKSLEWMGYINPNNGGADYNQKFQGRVTMTVDQSISTAYMELSRLRSDDTAVYFCARLGYSNPYFDFWGQGTLVTVSS VL: DIVLTQSPATLSLSPGERATLSCRASQDVNTAVAWYQQKPDQSPKLLIYWASTRHTGVPARFTGSGSGTDYTLTISSLQPEDFAVYFCQQHHVSPWTFGGGTKVEIK	IC50 (read off the curve), OD (450nM) [4]: ~0.7 µg/mL
		~0.5	H3L2-Fab (Fab, V domains shown) VH: QVQLVQSGAEVKKPGASVKVSCKASGYTFTDEYMNWVRQAPGQSLEWMGYINPNNGGADYNPSLKSRVTISVDQSISTAYMELSRLRSDDTAVYFCARLGYSNPYFDFWGQGTLVTVSS VL: DIVLTQSPATLSLSPGERATLSCRASQDVNTAVAWYQQKPDQSPKLLIYWASTRHTGVPARFTGSGSGTDYTLTISSLQPEDFAVYFCQQHHVSPWTFGGGTKVEIK	

Reference: patent US20250304667A1 (ALLERGAN, published 2025)
